Assay results from PMC5727116, “PEPD is a pivotal regulator of p53 tumor suppressor” (Nature Communications, 2017).

Target: T1, recombinant human p53, N-terminal His tag (human, UniProt P04637 1-393)
T1 construct: human p53, wild type, 393 aa per subunit as printed; plasmid pET15b-His-human p53; also called WT p53; source: E. coli, purified (nickel nitrilotriacetic acid-agarose chromatography)
Experiment: co-IP; purified PEPD or a PEPD mutant at 100 nM incubated with p53 at 200 nM in PBS, 100 µl, 2 h, room temperature; then PEPD antibody (2 µg) in 300 µl PBS overnight at 4 °C, protein G-agarose, IB
Settings: both partners purified

T1 sequence (P04637 whole entry): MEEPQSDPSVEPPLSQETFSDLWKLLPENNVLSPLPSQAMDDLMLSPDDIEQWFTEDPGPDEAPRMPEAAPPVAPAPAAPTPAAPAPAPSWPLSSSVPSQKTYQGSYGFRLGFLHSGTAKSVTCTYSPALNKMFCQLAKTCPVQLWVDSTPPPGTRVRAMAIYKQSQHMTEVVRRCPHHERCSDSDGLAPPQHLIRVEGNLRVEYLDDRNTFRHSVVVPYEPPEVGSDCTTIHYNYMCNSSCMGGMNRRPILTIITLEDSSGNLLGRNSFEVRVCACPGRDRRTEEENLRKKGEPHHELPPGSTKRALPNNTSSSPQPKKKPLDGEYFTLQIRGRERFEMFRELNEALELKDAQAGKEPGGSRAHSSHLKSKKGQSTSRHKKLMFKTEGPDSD

B1: recombinant human PEPD^265-493aa, C-terminal His tag (domain or fragment, UniProt P12955 265-493, looked up)
chain: RTIQNGDMCLFDMGGEYYCFASDITCSFPANGKFTADQKAVYEAVLRSSRAVMGAMKPGVWWPDMHRLADRIHLEELAHMGILSGSVDAMVQAHLGAVFMPHGLGHFLGIDVHDVGGYPEGVERIDEPGLRSLRTARHLQPGMVLTVEPGIYFIDHLLDEALADPARASFLNREVLQRFRGFGGVRIEEDVVVTDSGIELLTCVPRTVEEIEACMAGCDKAFTPFSGPK
notes: also called C-terminal 229 aa; source: E. coli, purified (nickel nitrilotriacetic acid-agarose chromatography)
binding result: binds
